Reference: article PMC6629437 (Cell, 2019)
Where a chain is given by its changes, count along the chain named. In names and notes the source's numbering stands.

B1: rFluA-20 IgG (recombinant FluA-20 IgG) (antibody, V domains shown)
VH: QVQLEESGPGLVKPSETLSLTCSVSGVSVTSDIYYWTWIRQPPGKGLEWIGYIFYNGDTNYNPSLKSRVTMSIDTSKNEFSLRLTSVTAADTAVYFCARGTEDLGYCSSGSCPNHWGQGTLVTVSS
VL: DIVMTQSPSSLSASIGDRVTITCRPSQNIRSFLNWFQHKPGKAPKLLIYAASNLQSGVPSRFSGSGSGTEFTLTIRSLQPEDFATYYCQQSYNTPPTFGQGTKVEIK
B2: rFluA-20 IgG D98A (H) (antibody, V domains shown)
VH: B1 VH with D103A
VL: B1 VL
B3: rFluA-20 IgG Y49A (L) (antibody, V domains shown)
VH: B1 VH
VL: B1 VL with Y49A

Assays:
[1] = target: H7 HA of A/Netherlands/219/2003, soluble trimer (Influenza A virus …, UniProt Q6VMK1, strain); test: ELISA
[2] = target: H5 HA of A/Indonesia/5/2005 (Influenza A virus A/Indonesia/5/2005 …, UniProt A5A5L7, strain); test: ELISA

Binder	binding result [1]	binding result [2]
B1	binds	–
B2	–	no binding (tested: 10 μg/mL)
B3	–	no binding (tested: 10 μg/mL)
